Results reported in patent publication US12692524B2, “Sialyltransferases and their use in producing sialylated oligosaccharides” (Chr. Hansen A/S, priority 2017, dated 2026).

B1: SiaT5: sialyltransferase of Helicobacter acinonychis, acc. NC_008229, SEQ ID NO: 33 (protein, listed as Heliobacter acinonychis)
chain: MGTIKKPLIIAGNGPSIKDLDYALFPKDFDVFRCNQFYFEDKYYLGREIKGVFFNPCVLSSQMQTVQYLMDNGEYSIERFFCSVSTDRHDFDGDYQTILPVDGYLKAHYPFVCDTFSLFKGHEEILKHVKYHLKTYSKELSAGVLMLLSAVVLGYKEIYLVGIDFGASSWGHFYDESQSQHFSNHMADCHNIYYDMLTICLCQKYAKLYALAPNSPLSHLLTLNPQAKYPFELLDKPIGYTSDLIISSPLEEKLLEFKNIEEKLLEFKNIEEKLLEFKNIEEKLLEFKNIEEKLLEFKNIEEKLLEFKNIEEKLLEFKNIEEKLLEFKNIEEKLLEFKNIEEKLLEFKNIEEKLLEFKNIEEKLLEFKNIEEKLLEFKNIEEKLLASRLNNILRKIKRKILPFFWGGGVTPTLKVSFRWGAA
B2: SiaT3: sialyltransferase of Campylobacter jejuni strain OH4384, acc. AX934425, SEQ ID NO: 12 (protein, listed as Campylobacter jejuni)
chain: MGKKVIIAGNGPSLKEIDYSRLPNDFDVFRCNQFYFEDKYYLGKKCKAVFYNPILFFEQYYTLKHLIQNQEYETELIMCSNYNQAHLENENFVKTFYDYFPDAHLGYDFFKQLKDFNAYFKFHEIYFNQRITSGVYMCAVAIALGYKEIYLSGIDFYQNGSSYAFDTKQKNLLKLAPNFKNDNSHYIGHSKNTDIKALEFLEKTYKIKLYCLCPNSLLANFIELAPNLNSNFIIQEKNNYTKDILIPSSEAYGKFSKNIN
B3: SiaT7: sialyltransferase of Pasteurella dagmatis strain DSM 22969, acc. AFY98851, SEQ ID NO: 7 (protein, listed as Pasteurella dagmatis)
chain: MTIYLDPASLPTLNQLMHFTKESEDKETARIFGFSRFKLPEKITEQYNNIHFVEIKNNRPTEDIFTILDQYPEKLELDLHLNIAHSIQLFHPILQYRFKHPDRISIKSLNLYDDGTMEYVDLEKEENKDIKSAIKKAEKQLSDYLLTGKINFDNPTLARYVWQSQYPVKYHFLSTEYFEKAEFLQPLKTYLAGKYQKMDWSAYEKLSPEQQTFYLKLVGFSDETKQLFHTEQTKFIFTGTTTWEGNTDIREYYAKQQLNLLKHFTHSEGDLFIGDQYKIYFKGHPRGGDINDYILKHAKDITNIPANISFEILMMTGLLPDKVGGVASSLYFSLPKEKISHIIFTSNKKIKNKEDALNDPYVRVMLRLGMIDKSQIIFWDSLKQL
B4: SiaT1: sialyltransferase of Neisseria meningitidis, acc. U60660, SEQ ID NO: 5 (protein, listed as Neisseria meningitidis)
chain: MGLKKACLTVLCLIVFCFGIFYTFDRVNQGERNAVSLLKEKLFNEEGEPVNLIFCYTILQMKVAERIMAQHPGERFYVVLMSENRNEKYDYYFNQIKDKAERAYFFHLPYGLNKSFNFIPTMAELKVKSMLLPKVKRIYLASLEKVSIAAFLSTYPDAEIKTFDDGTGNLIQSSSYLGDEFSVNGTIKRNFARMMIGDWSIAKTRNASDEHYTIFKGLKNIMDDGRRKMTYLPLFDASELKTGDETGGTVRILLGSPDKEMKEISEKAAKNFKIQYVAPHPRQTYGLSGVTTLNSPYVIEDYILREIKKNPHTRYEIYTFFSGAALTMKDFPNVHVYALKPASLPEDYWLKPVYALFTQSGIPILTFDDKN
B5: SiaT11: sialyltransferase of Photobacterium damselae JT0160, acc. BAA25316, SEQ ID NO: 31 (protein, listed as Photobacterium damsela)
chain: MKKILTVLSIFILSACNSDNTSLKETVSSNSADVVETETYQLTPIDAPSSFLSHSWEQTCGTPILNESDKQAISFDFVAPELKQDEKYCFTFKGITGDHRYITNTTLTVVAPTLEVYIDHASLPSLQQLIHIIQAKDEYPSNQRFVSWKRVTVDADNANKLNIHTYPLKGNNTSPEMVAAIDEYAQSKNRLNIEFYTNTAHVFNNLPPIIQPLYNNEKVKISHISLYDDGSSEYVSLYQWKDTPNKIETLEGEVSLLANYLAGTSPDAPKGMGNRYNWHKLYDTDYYFLREDYLDVEANLHDLRDYLGSSAKQMPWDEFAKLSDSQQTLFLDIVGFDKEQLQQQYSQSPLPNFIFTGTTTWAGGETKEYYAQQQVNVINNAINETSPYYLGKDYDLFFKGHPAGGVINDIILGSFPDMINIPAKISFEVLMMTDMLPDTVAGIASSLYFTIPADKVNFIVFTSSDTITDREEALKSPLVQVMLTLGIVKEKDVLFWADHKVNSMEVAIDEACTRIIAKRQPTASDLRLVIAIIKTITDLERIGDVAESIAKVALESFSNKQYNLLVSLESLGQHTVRMLHEVLDAFARMDVKAAIEVYQEDDRIDQEYESIVRQLMAHMMEDPSSIPNVMKVMWAARSIERVGDRCQNICEYIIYFVKGKDVRHTKPDDFGTMLD
B6: SiaT4: sialyltransferase of Helicobacter acinonychis, acc. NC_008229, SEQ ID NO: 11 (protein, listed as Heliobacter acinonychis)
chain: MNKKPLIIAGNGPSIKDLDYALFPKDFDVFRCNQFYFEDKYYLGREIKGVFFNAHVFDLQMKITKAIVKNGEYHPDHIYCTHVEPYGYVNGNQQLMQEYLEKHFVGVRSTYAYLKDLEPFFILHSKYRNFYDQHFTTGIMMLLVAIQLGYKEIYLCGIDFYENGFGHFYENQGGFFEEDSDPMHDKNIDIQALELAKKYAKIYALVPNSALVKMIPLSSQKGVLEKVKDRIGLGEFKREKFGQKELERQKELERQKELERQKELERQKELERQKELERQKELERQKELERQKELERQKELERQKELERQKELERQKELERQKELERQKELERQKELELERSLKARLKAVLASKGIRGDNLIIVSLKDTYRLFKGGFALLLDLKALKSIIKAFLKR

Columns and labels:
[1] = In vitro sialylation of LNT by protein extracts, LST-a/-b quantified by LC-MS/MS; assay type: biochemical; details: for Relative efficacy of sialyltransferases regarding in-vitro production of sialyllacto-N-tetraoses: LST-b / Relative efficacy of sialyltransferases regarding in-vitro production of sialyllacto-N-tetraoses: LST-a: 5 mM LNT, 10 mM CMP-Neu5Ac, 16 hours, LC-MS/MS, relative quantity, n.d.: not detectable
Description: Escherichia coli BL21(DE3) harbouring plamids encoding for 100 sialyltransferases were grown at 30° C. in 100 ml shake flasks filled with 20 ml of 2YT medium supplemented with ampicillin 100 μg ml^−1. When the cultures reached an OD600 of 0.1 to 0.3, gene expression was induced by addition of 0.3 mM IPTG and the incubation was continued for 12 to 16 hours. Cells were harvested by centrifugation and mechanically disrupted in a defined volume of 50 mM Tris-HCl pH7.5 using glass beads. The protein extract was kept on ice until the assay started. The in vitro assay was carried out in a total volume of 25 μl including 50 mM Tris-HCl pH7.5, 5 mM MgCl2, 10 mM CMP-Neu5Ac and 5 mM LNT. The assay started with the addition of 3 μl protein extract and continued for 16 hours. Product formation was determined by mass spectrometry.
Mass spectrometry analysis was performed by MRM (multiple reaction monitoring) using a LC Triple-Quadrupole MS detection system. Precursor ions are selected and analyzed in quadrupole 1, fragmentation takes place in the collision cell using argon as CID gas, selection of fragment ions is performed in quadrupole 3. Chromatographic separation of lactose, 3′-Sialyllactose and 6′-Sialyllactose after dilution of culture supernatant 1:100 with H2O (LC/MS Grade), was performed on a XBridge Amide HPLC column (3.5 μm, 2.1×50 mm (Waters, USA) with a XBridge Amide guard cartridge (3.5 μm, 2.1×10 mm) (Waters, USA). Column oven temperature of the HPLC system was 50° C. The mobile phase was composed of acetonitrile:H2O with 10 mM ammonium acetate. A 1 μl sample was injected into the instrument; the run was performed for 3.60 min with a flow rate of 400 μl/min. 3′-Sialyllactose and 6′-Sialyllactose were analyzed by MRM in ESI positive ionization mode. The mass spectrometer was operated at unit resolution. Sialyllactose forms an ion of m/z 656.2 [M+Na]. The precursor ion of Sialyllactose was further fragmented in the collision cell into the fragment ions m/z 612.15, m/z 365.15 and m/z 314.15. Collision energy, Q1 and Q3 Pre Bias were optimized for each analyte individually. Chromatographic separation of lactose, LNT-II, LNT and LST-a or -b after dilution of particle-free biocatalysis-reaction or crude extract, respectively, 1:50 with H2O (LC/MS Grade), was performed on a XBridge Amide HPLC column (3.5 μm, 2.1×50 mm (Waters, USA) with a XBridge Amide guard cartridge (3.5 μm, 2.1×10 mm) (Waters, USA). Column oven was run at 35° C. The mobile phase was composed of acetonitrile:H2O with 0.1% ammonium hydroxide. A 1 μl sample was injected into the instrument; the run was performed for 3.50 min with a flow rate of 300 μl/min. Lactose, LNT-II, LNT as well as LST-a and -b were analyzed by MRM in ESI negative ionization mode. The mass spectrometer was operated at unit resolution. Lactose forms an ion of m/z 341.00 [M−H]. The precursor ion of Lactose was further fragmented in the collision cell into the fragment ions m/z 179.15, m/z 161.15 and m/z 101.05. LNT-II forms an ion of m/z 544.20 [M−H]. The precursor ion of LNT-II was further fragmented into the fragment ions m/z 382.10, m/z 161.00 and m/z 112.90. LNT forms an ion of m/z 706.20 [M−H]. The precursor ion of LNT was further fragmented into the fragment ions m/z 382.10, m/z 202.10 and m/z 142.00. LST-a and -b forms an ion of m/z 997.20 [M−H]. The precursor ion of LST-a and-b was further fragmented into the fragment ions m/z 290.15, m/z 202.15 and m/z 142.15. Collision energy, Q1 and Q3 Pre Bias were optimized for each analyte individually. Quantification methods were established using commercially available standards (Carbosynth, Compton, UK).
Twenty eight genes were identified to produce LST-a whereas only 6 enzymes synthesized LST-b. […] Irrespectively of the protein overexpression level, sialyltransferases that produced best were selected for determination of Km and Vmax.

[2] = In vivo screening in E. coli #1363/#1730 with lactose as acceptor, sialyllactose identified by TLC; assay type: cell-based, Escherichia coli BL21(DE3); details: for Described activity confirmed in the lactose screening: in words
Description: Escherichia coli BL21(DE3) #1363 and #1730 harbouring plasmids encoding for 100 sialyltransferases were grown at 30° C. in 100 ml shake flasks filled with 20 ml of mineral salts medium (Samain et al., J. Biotech. 1999, 72:33-47) supplemented with 2% (wt/vol) glucose, ampicillin 100 μg ml^−1, kanamycin 15 μg ml^−1 and zeocin 40 μg ml^−1. When the cultures reached an OD600 of 0.1 to 0.3, gene expression was induced by addition of 0.3 mM IPTG. After an incubation for one hour, 1.5 mM lactose was added to #1363 cultures whereas 1.5 mM lactose as well as 1.5 mM sialic acid was added to #1730 cultures. The incubation continued for 72 to 96 hours. Then, cells were harvested by centrifugation and mechanically disrupted in a defined volume using glass beads. Subsequently, samples were applied to thin layer chromatography (TLC) on Silica Gel 60 F254 (Merck KGaA, Darmstadt, Germany). A mixture of butanol:acetone:acetic acid:H2O (35/35/7/23 (v/v/v/v)) was used as mobile phase. For detection of the separated substances, the TLC plate was soaked with thymol reagent (0.5 g thymol solved in 95 ml ethanol, 5 ml sulfuric acid added) and heated.
In the entire screening, thirty two genes were identified to encode for α-2,3-sialyltransferases, thus producing 3′-SL. 19 enzymes synthesized 6′-SL and were depicted as α-2,6-sialyltransferases. An α-2,3- as well as an α-2,6-sialyltransferase activity could only be observed for 3 enzymes. […] The screening appeared highly accurate since the described activities of extensively characterized sialyltransferases, e. g. […] Regarding the product formation, the experimental setting allowed a semi-quantitative comparison of the screened enzymes. But to achieve deeper knowledge about their kinetic properties, the 3 potentially best performing α-2,3- and α-2,6-sialyltransferases were applied to in vitro assays.

Molecule | Relative efficacy of sialyltransferases regarding in-vitro production of sialyllacto-N-tetraoses: LST-b [1] | Relative efficacy of sialyltransferases regarding in-vitro production of sialyllacto-N-tetraoses: LST-a [1] | Described activity confirmed in the lactose screening [2] | further results
B1 | 1 | – | – | –
B2 | – | 605 | – | –
B3 | – | 2.25 × 10^3 | – | –
B4 | – | 2.98 × 10^3 | could be confirmed | Described activity to sialylate LNT verified ([1]; in words): could be verified; Production of sialyllactose in-vivo ([2]; 1.5 mM lactose, 72 to 96 hours, qualitative via TLC): 3′-SL
B5 | 13 | – | could be confirmed | –
B6 | – | 654 | – | –
